Experimental data reported in patent publication US20130052192A1 (Novo Nordisk, published 2013).

Target: T1, human CD62P (P-Selectin) on the surface of activated platelets (human, UniProt P16109 42-830)
T1 sequence: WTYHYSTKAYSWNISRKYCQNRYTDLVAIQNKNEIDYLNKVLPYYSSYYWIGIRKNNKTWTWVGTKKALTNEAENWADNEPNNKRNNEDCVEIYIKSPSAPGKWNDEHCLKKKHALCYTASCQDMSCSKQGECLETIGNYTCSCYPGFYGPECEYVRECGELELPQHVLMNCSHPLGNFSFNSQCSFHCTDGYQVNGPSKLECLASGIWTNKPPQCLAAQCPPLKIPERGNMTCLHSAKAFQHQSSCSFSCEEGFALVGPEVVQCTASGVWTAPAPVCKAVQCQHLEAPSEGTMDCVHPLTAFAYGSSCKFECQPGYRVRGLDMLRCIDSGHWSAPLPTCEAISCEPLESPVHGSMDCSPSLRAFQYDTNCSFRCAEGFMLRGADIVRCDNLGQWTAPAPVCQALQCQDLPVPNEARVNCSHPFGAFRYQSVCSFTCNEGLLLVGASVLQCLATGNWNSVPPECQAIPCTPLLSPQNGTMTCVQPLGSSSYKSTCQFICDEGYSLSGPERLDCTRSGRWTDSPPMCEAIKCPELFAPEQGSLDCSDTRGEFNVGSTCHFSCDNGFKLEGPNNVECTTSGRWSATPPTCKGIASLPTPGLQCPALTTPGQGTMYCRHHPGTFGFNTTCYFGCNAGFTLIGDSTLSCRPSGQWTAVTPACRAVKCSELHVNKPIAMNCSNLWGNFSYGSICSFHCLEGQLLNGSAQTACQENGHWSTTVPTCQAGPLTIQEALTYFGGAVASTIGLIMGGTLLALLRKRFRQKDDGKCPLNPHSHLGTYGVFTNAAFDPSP
Experiment: FACS on activated human platelets; sample incubated without Thrombin
Procedure: In short, blood from healthy donors was drawn by venipuncture of the antecubital vein. […] Platelet preparations were produced by making a standard Platelet Rich Plasma (PRP). Here, anti-coagulated whole blood was centrifuged (200 g for 15 minutes) without brake. […] Platelets were washed and prepared for staining. […] 50-100,000 cells were used per well.

B1: EP-FpA-PB1.3 mAb construct, incubated without Thrombin (uncleaved) (antibody, human IgG4, V domains shown)
VH: EAQLQQSGPELVEPGASVKVSCKASGYTFTNYVMHWVKQKPGQGLEWIGFINPSNDGPKYNERFKNKATLTSDKSSSTAYMELSSLTSEVSAVYFCARARPGFDWYFDVWGAGTTVTVSS
VL: DIVMTQSQKFMSTSVGDRVSVTCKASQNVATNVVWYQQRPGQSPKALIYTASYRFSGVPERFSGSGSGTDFTLTITNVQSEDLADYFCQQYNNYPYTFGGGTKVEIQR
notes: also called Sample 2
binding result: no binding
